The target of the experiment is HLA-B*07 (human). In words: UV peptide exchange ELISA; +++ = yield >50.
In the case of SPSREASAL, the peptide exchange yield was in the range of 50 to 75%.
The same measure for FPYSGDKILV: 50 to 75%; for TAYPSLRLL: 50 to 75%; for HPNKIKASL: 50 to 75%.
On to MPVPGILL, for which the peptide exchange yield was 50 to 75%.
The same measure for QPANFIVLL: 50 to 75%; for LPNTGRIGQL: 50 to 75%.
Under RLAHVRARL stands 50 to 75%; under RITWKGLLL, 50 to 75%; under SPRSGVLL, 50 to 75%.
The same measure for AASPVGSAL: 50 to 75%; for VPHTGRYTCL: 50 to 75%.
For KPIRTGISPLAL, the peptide exchange yield was in the range of 50 to 75%.
APRPGNWIL gave a peptide exchange yield of 50 to 75%.
Under SPSTSRTPL stands 50 to 75%.
Under SPSKSLEM stands 50 to 75%.
The molecule RPHQKGWLSI displayed a peptide exchange yield of 50 to 75%.
Under SPIIHSIL stands 50 to 75%; under FPAFLEAM, 50 to 75%.
Under NPIFGRKEL stands 50 to 75%; under IPDTIASVL, 50 to 75%.
The same measure for KPYDGIPAS: 50 to 75%.
TPRIGPKVSL showed a peptide exchange yield of 50 to 75%.
Under RPFPLALL stands 50 to 75%; under RNRQVATAL, 50 to 75%.
Under AVHEIGHSL stands 50 to 75%; under LIAARGSLVL, 50 to 75%; under SSPRGTTSTL, 50 to 75%.
Under SPTPVFTTL stands 50 to 75%; under VPSDITTAF, 50 to 75%.
In turn, IPIDQILNSF displayed a peptide exchange yield of 50 to 75%.
On to HPYSDLADVF, for which the peptide exchange yield lay within 50 to 75%.
The same measure for RVLLRWISL: 50 to 75%; for FPNAGPRHLL: 50 to 75%; for IPETASVVAI: 50 to 75%.
Under SPGDKRLAAYL stands 50 to 75%.
Under RPAPGPAPFV stands 50 to 75%.
For the molecule RAVPVGSGL, the peptide exchange yield was in the range of 50 to 75%.
The same measure for LPYEKVSRL: 50 to 75%; for FPRKPYEGRV: 50 to 75%; for KIEQIRAVL: 50 to 75%.
The same measure for LPWEQNEQV: 50 to 75%.
The same measure for SPVGVGQRL: 50 to 75%; for SPRGTTSTL: 50 to 75%; for LPLHRGDLVI: 50 to 75%.
The molecule NPREPEKSL displayed a peptide exchange yield of 50 to 75%.
Under RVMLPKAAL stands 50 to 75%; under TPELKSSIL, 50 to 75%; under QPQQPGFFL, 50 to 75%.
Under SPSLQSSRESL stands 50 to 75%; under LHAMNSLSAM, 50 to 75%; under RPTAASQSRAL, 50 to 75%.
The same measure for LPMTHRLQL: 50 to 75%; for MAYDRFIAI: 50 to 75%.
The molecule APADEPRTVL returned a peptide exchange yield of 50 to 75%.
For the molecule HPRAPGEQQRL, the peptide exchange yield was in the range of 50 to 75%.
The same measure for APGGSSRSSL: 50 to 75%.
The same measure for LPQRPNARL: 50 to 75%.
On to IPAPQGAVL, for which the peptide exchange yield was in the range of 50 to 75%.
The same measure for MPKTNLSKM: 50 to 75%; for WPRLPGAGL: 50 to 75%.
Under VLPRAGGAFLM stands 50 to 75%; under LPSPAHAFRAL, 50 to 75%; under VPRRPARAL, 50 to 75%.
FAFYGGKSL: the peptide exchange yield lay within 50 to 75%.
Under RPGTGQGGL stands 50 to 75%; under QPENSLEGISL, 50 to 75%; under RPSGTAGAAL, 50 to 75%.

For the origin of these results see patent publication US20200040057A1 (IMMATICS BIOTECHNOLOGIES, published 2020).
